Measured values reported in patent US20220340666A1.

Target: endogenous Galectin-9 on CRL-2134 cells (human) (UniProt O00182)
Assay: cell-based binding assay, flow cytometry on CRL-2134 cells

Chain of endogenous Galectin-9 on CRL-2134 cells (human) (O00182 whole entry): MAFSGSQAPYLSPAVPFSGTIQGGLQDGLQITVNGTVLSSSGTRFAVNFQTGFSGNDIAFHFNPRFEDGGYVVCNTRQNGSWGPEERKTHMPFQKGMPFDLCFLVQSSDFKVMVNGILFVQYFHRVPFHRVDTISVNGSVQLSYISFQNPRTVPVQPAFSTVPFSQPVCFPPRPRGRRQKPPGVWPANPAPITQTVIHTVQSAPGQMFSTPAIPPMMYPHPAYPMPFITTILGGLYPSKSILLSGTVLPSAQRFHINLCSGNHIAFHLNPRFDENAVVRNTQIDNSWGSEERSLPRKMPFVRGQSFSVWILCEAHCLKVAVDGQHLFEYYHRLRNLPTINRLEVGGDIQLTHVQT

| Kd [nM] | Binder |
| --- | --- |
| 0.41 | G9.2-17 hIgG1 (antibody, V domains shown) VH: EVQLVESGGGLVQPGGSLRLSCAASGFTVSSSSIHWVRQAPGKGLEWVAYISSSSGYTYYADSVKGRFTISADTSKNTAYLQMNSLRAEDTAVYYCARYWSYPSWWPYRGMDYWGQGTLVTVSS VL: DIQMTQSPSSLSASVGDRVTITCRASQSVSSAVAWYQQKPGKAPKLLIYSASSLYSGVPSRFSGSRSGTDFTLTISSLQPEDFATYYCQQSSTDPITFGQGTKVEIKR |
| 2.91 | G9.2-17 mIgG1 (antibody, V domains shown) VH: EVQLVESGGGLVQPGGSLRLSCAASGFTVSSSSIHWVRQAPGKGLEWVAYISSSSGYTYYADSVKGRFTISADTSKNTAYLQMNSLRAEDTAVYYCARYWSYPSWWPYRGMDYWGQGTLVTVSS VL: DIQMTQSPSSLSASVGDRVTITCRASQSVSSAVAWYQQKPGKAPKLLIYSASSLYSGVPSRFSGSRSGTDFTLTISSLQPEDFATYYCQQSSTDPITFGQGTKVEIKR |
